# B1: GN370: lysin-AMP construct: MIDR, FIRL and NPTH moieties N-terminal to GN202 lysin (SEQ ID NO: 44) (protein)
# chain: MIDRFIRLNPTHGPRRPRRPGRRAPVRTSQRGIDLIKSFEGLRLSAYQDSVGVWTIGYGTTRGVTRYMTITVEQAERMLSNDIQRFEPELDRLAKVPLNQNQWDALMSFVYNLGAANLASSTLLDLLNKGDYQGAADQFPHWVNAGGKRLDGLVKRRAAERALFLEPLS
# Assays:
# [1] = tested on: Pseudomonas aeruginosa strain CFS-1292 (meropenem resistant); assay: MIC in 25% CAA alone, with […] human serum or […] SURVANTA (Table 13); type: cell-based
# Method: Materials and methods: MICs were determined by broth microdilution in media supplemented with human serum and pulmonary surfactant ([…]®; Myoderm Clinical Supplies). Minimal biofilm eradicating concentrations (MBECs) were determined using standard methods. […] Fluorescence microscopy was performed after LIVE/DEAD staining (ThermoFisher) and TEM was performed.
# P. aeruginosa PA20 = assay: MIC of GN370 and meropenem against the infecting strain; type: cell-based, Pseudomonas aeruginosa
# [2] = tested on: outer membrane of P. aeruginosa (CFS 1292); assay: N-phenyl-1-napthylamine (NPN) uptake assay, outer membrane destabilization (Table 15); type: cell-based, Pseudomonas aeruginosa; settings: NPN fluorescence, buffer = 100, lysin 100 μg/well
# Method: The ability of gram-negative lysins to destabilize the outer membrane of P. aeruginosa was evaluated through the use of an N-phenyl-1-napthylamine (NPN) uptake assay. […] NPN was added to a final concentration of […]. […] Changes in fluorescence were recorded (excitation 1=350 nm; emission 1=420 nm) over two hours.
# P. aeruginosa (PA20) = assay: Rabbit infective endocarditis model (Tables 28-32, FIGS. 5-8); type: in vivo, Pseudomonas aeruginosa in rabbits
# Method: Initially, a polyethylene catheter was placed into the rabbits' right ventricle and secured. 48 hours after catheter placement, rabbits were infected intravenously with P. aeruginosa (PA20) (6×10^9 CFU/mL). Treatment commenced 24 hours post-infection.
# Data were analyzed using the Kruskal-Wallis method for multiple comparison and then adjusted with a false discovery rate approach (Benjamini-Hochberg method), using StatsDirect Software. A p-value of <0.05 was considered statistically significant.
# P. aeruginosa isolates = assay: MIC against a range of isolates in CAA + […] human serum (Table 11); type: cell-based, Pseudomonas aeruginosa
# [3] = tested on: carbapenem-resistant P. aeruginosa strains; assay: Resensitization of carbapenem-resistant strains, combinations with imipenem or meropenem (Tables 18-22); type: cell-based, Pseudomonas aeruginosa; settings: for FICI: isolate WC-452
# [4] = tested on: P. aeruginosa strain WC-453; assay: Time-kill assay in HEPES or CAA with 25% human serum (Tables 7, 8); type: cell-based, Pseudomonas aeruginosa
# Method: Exponential phase bacteria were then pelleted and resuspended in 1/5 culture volume of 25 mM HEPES, pH 7.4 before a final adjustment to an optical density corresponding to a McFarland value of 0.5. […] All treatments were incubated at 37° C. with aeration. At time points before the addition of lysin (or buffer control) and at 1 hour and 3 hours intervals thereafter, culture samples were removed for quantitative plating on CAA agar plates.
# [5] = single dose of GN370 + meropenem
molecule,measurement,setting,value
B1,MIC in […] Survanta,[1],2 µg/mL
same,MIC in human serum ([…]) in CAA,[1],2 µg/mL
same,activity in human serum and pulmonary surfactant,[1],active in human serum and pulmonary surfactant
same,25% CAA MIC,[1]; media alone,4
same,MIC of P. aeruginosa PA20,P. aeruginosa PA20,2 µg/mL
same,MIC against P. aeruginosa,P. aeruginosa PA20; GN370 value in rabbit serum,2 µg/mL
same,% RFU,[2]; 5 minutes,205 % RFU
same,% RFU,[2]; 10 minutes,217 % RFU
same,% RFU,[2]; 20 minutes,213 % RFU
same,% RFU,[2]; 40 minutes,198 % RFU
same,% RFU,[2]; 60 minutes,193 % RFU
same,% RFU,[2]; 100 minutes,184 % RFU
same,change of cardiac vegetations counts vs untreated controls,P. aeruginosa (PA20); meropenem + 3 mg/kg GN370,−1.3 log10 CFU/g
same,change of cardiac vegetations counts vs vehicle-treated controls,P. aeruginosa (PA20); meropenem + 3 mg/kg GN370,−0.8 log10 CFU/g
same,change of cardiac vegetations counts vs untreated controls,P. aeruginosa (PA20); meropenem + 10 mg/kg GN370,−1.1 log10 CFU/g
same,change of cardiac vegetations counts vs vehicle-treated controls,P. aeruginosa (PA20); meropenem + 10 mg/kg GN370,−0.5 log10 CFU/g
same,"P. aeruginosa densities in kidney, spleen and lung vs meropenem alone",P. aeruginosa (PA20); meropenem + GN370 at all doses,−0.6 to−2.2 log10 CFU/g
same,"P. aeruginosa densities in kidney, spleen and lung vs untreated control",P. aeruginosa (PA20); meropenem + GN370 at all doses,−2.0 to−3.6 log10 CFU/g
same,"P. aeruginosa densities in kidney, spleen and lung vs vehicle",P. aeruginosa (PA20); meropenem + GN370 at all doses,−1.7 to−3.2 log10 CFU/g
same,CFU reduction in cardiac vegetation tissues,P. aeruginosa (PA20); [5],about 1 log kill
same,"CFU reduction in kidney, spleen and lung tissues",P. aeruginosa (PA20); [5],about 3 log kill
same,CFU reduction in cardiac vegetations,"P. aeruginosa (PA20); three days of GN370 at 10 mg/kg + 5 mg/kg meropenem, compared to both the start of treatment and a vehicle control",> 2 log CFU
same,activity against P. aeruginosa isolates in human serum or SURVANTA,P. aeruginosa isolates; Tables 11 and 12,active against a variety of P. aeruginosa isolates
same,"MIC, CAA + […] Human Serum",P. aeruginosa isolates; strain CFS 1109 (ATCC 17646),1 µg/mL
same,"MIC, CAA + […] Human Serum",P. aeruginosa isolates; strain CFS 1292,2 µg/mL
same,"MIC, CAA + […] Human Serum",P. aeruginosa isolates; strain CFS1539 (PA1),1 µg/mL
same,"MIC, CAA + […] Human Serum",P. aeruginosa isolates; strain CFS 1540 (PA2),1 µg/mL
same,"MIC, CAA + […] Human Serum",P. aeruginosa isolates; strain CFS 1541 (PA3),1 µg/mL
same,"MIC, CAA + […] Human Serum",P. aeruginosa isolates; strain CFS 1557 (PA19),4 µg/mL
same,"MIC, CAA + […] Human Serum",P. aeruginosa isolates; strain CFS 1558 (PA20),0.5 µg/mL
same,"MIC, CAA + […] Human Serum",P. aeruginosa isolates; strain CFS 1559 (PA21),2 µg/mL
same,"MIC, CAA + […] Human Serum",P. aeruginosa isolates; strain CFS 1560 (PA22),2 µg/mL
same,"MIC, CAA + […] Human Serum",P. aeruginosa isolates; strain CFS 1561 (PA23),2 µg/mL
same,"MIC, CAA + […] Human Serum",P. aeruginosa isolates; strain CFS 1562 (PA24),2 µg/mL
same,"MIC, CAA + […] Human Serum",P. aeruginosa isolates; strain CFS 1596 (PA26),1 µg/mL
same,"MIC, CAA + […] Human Serum",P. aeruginosa isolates; strain CFS 1597 (PA27),0.5 µg/mL
same,"MIC, CAA + […] Human Serum",P. aeruginosa isolates; strain CFS 1669 (PA41),2 µg/mL
same,"MIC, CAA + […] Human Serum",P. aeruginosa isolates; strain CFS 1674 (PA46),2 µg/mL
same,"MIC, CAA + […] Human Serum",P. aeruginosa isolates; strain CFS 1675 (PA47),1 µg/mL
same,"MIC, CAA + […] Human Serum",P. aeruginosa isolates; strain CFS 1766 (ATCC 27853),4 µg/mL
same,resensitization to carbapenems in synergistic combinations,"[3]; imipenem (IPM) and meropenem (MEM), carbapenem-resistant isolates",reductions of IPM and MEM MICS to below breakpoint values
same,FICI,[3]; lysin + imipenem,0.094
same,FICI,[3]; lysin + meropenem,0.125
same,"Antibiotic MIC / Lysin MIC, Alone",[3]; vs. WC-452 (Table 22),2
same,"bactericidal activity (CFU decrease of 3-Log10, 3 hours after the addition of lysin)","[4]; 10 μg/mL, enumerated lysins in CAA/HuS, general statement for HEPES and CAA/HuS",bactericidal activity
same,"CAA/HuS (Log10 CFU/mL), 1 hr","[4]; CAA + 25% human serum, lysin 10 μg/ml, 1 hr, WC-453",4.0 Log10 CFU/mL
same,"CAA/HuS (Log10 CFU/mL), 3 hr","[4]; CAA + 25% human serum, lysin 10 μg/ml, 3 hr, WC-453",<3.7 Log10 CFU/mL

# From patent US20210324359A1, “USE OF GRAM-NEGATIVE LYSIN-ANTIMICROBIAL PEPTIDE (AMP) POLYPEPTIDE CONSTRUCTS IN TREATING ENDOCARDITIS” (priority 2020, published 2021)
